Measured values published in paper PMC3798605, “Independent Pathways Can Transduce the Life-Cycle Differentiation Signal in Trypanosoma brucei” (PLoS Pathogens, 2013).

Target: TbPTP1
Experiment: SPR
Settings: 2 mM citrate, 25°C, 10 mM HEPES, pH 7.4, 150 mM NaCl, 0.05% P20, 2 mM DTT, 20 mM MgCl2; for kon: parent: 0.0012; for koff: parent: 0.05; for Kd: parent: 42

Substance	kon [M⁻¹ s⁻¹]	koff [s⁻¹]	Kd [µM]
TbPIP39 wild type D57A	1300	0.04	31
TbPIP39 wild type DD mutant	1200	0.05	42
TbPIP39 wild type T63A; V64A	1100	0.03	30
